Experiments:
[1] = target: T1, Peptide 733-3RE-2 (Homo sapiens); experiment: immunostaining of cells or tissue; pre-blocking test: synthetic peptide pre-incubated with mAb785; binding of the peptide read from the loss of immunostaining of breast cancer sections; details: both partners purified
T1 construct: residues 42-51 of human mammaglobin-A; also called truncated peptide without PV; source: synthetic peptide
T1 chain: YKELLQEFID

[2] = target: T2, mammaglobin-A (Mam-A) on breast cancer cells and in breast cancer tissue (Homo sapiens, UniProt Q13296); experiment: immunostaining of cells or tissue; ZR75.1 cells and tumor slides (GFP in the cytoplasm) fixed with cold methanol/acetone, mAb then AF594-labeled anti-mouse IgG, confocal microscopy; details: one partner purified
T2 construct: mammaglobin-A, endogenous in human breast cancer cells and tissue; Cells were fixed with cold methanol/acetone before staining; also called membrane-associated Mam-A; source: endogenous, breast cancer cell lines (ZR75.1, MCF-7, SKBR3, MDA-MB-231) and breast cancer tissue sections
T2 sequence (Q13296 19-93): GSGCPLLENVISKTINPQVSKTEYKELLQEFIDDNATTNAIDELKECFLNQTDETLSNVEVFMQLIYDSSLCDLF

[3] = target: T3, human mammaglobin-A (Mam-A) protein, antigen of the ELISA and SPR (Homo sapiens, UniProt Q13296); experiment: ELISA; indirect ELISA of the mAbs on Mam-A
T3 construct: mammaglobin-A, human
T3 sequence (Q13296 19-93): as above

Measured: binding result

B1: mAb785 (antibody, V domains shown)
VH: EVKLVESGGGLVKPGGSLKLSCAASGFTLSNHGMSWVRQTSEKRLEWVASISIRGNTYYLDSVEGRFTISRDDARNILYLQMSGLRSEDTAIYYCTYFTSVVWGQGTTLTVSS
VL: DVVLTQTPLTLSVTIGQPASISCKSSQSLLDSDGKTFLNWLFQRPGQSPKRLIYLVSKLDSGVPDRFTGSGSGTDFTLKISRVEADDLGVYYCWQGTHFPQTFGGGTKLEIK
notes: Whole monoclonal antibody raised against human Mam-A; detected with anti-mouse IgG secondary antibodies, so probably a mouse IgG; also called anti-Mam-A mAb785
binds: all assays above

From PMC7256037, “Identification and characterization of mammaglobin-A epitope in heterogenous breast cancers for enhancing tumor-targeting therapy” (Signal Transduction and Targeted Therapy, 2020)
